Measured values reported in patent US20250282887A1 (Amgen, published 2025).

Legend:
[1] = molecular target: T1, Human MAGEB2 (Melanoma-associated antigen B2) (human, UniProt O15479 1-319); assay: IHC, antibody supernatant on FFPE CHO cells transfected with human MAGEB2
T1 construct: Intracellular antigen detected by IHC in FFPE material: CHO cells transfected with human MAGEB2 (mCherry vector with Myc/DDK tags, or ORF without tags)
T1 sequence: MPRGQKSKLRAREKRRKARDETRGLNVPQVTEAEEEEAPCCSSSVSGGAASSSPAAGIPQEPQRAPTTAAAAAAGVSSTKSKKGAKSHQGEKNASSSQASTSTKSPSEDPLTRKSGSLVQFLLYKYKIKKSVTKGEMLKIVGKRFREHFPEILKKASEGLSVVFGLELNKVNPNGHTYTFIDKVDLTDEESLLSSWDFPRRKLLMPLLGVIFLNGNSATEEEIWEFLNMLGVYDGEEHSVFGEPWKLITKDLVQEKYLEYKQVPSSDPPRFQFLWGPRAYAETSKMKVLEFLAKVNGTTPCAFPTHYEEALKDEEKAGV
Text: Negative control cells included parental Chinese hamster ovary (CHO) cells, CHO cells stably transfected with mCherry Vector Control (minus Myc/DDK tags), CHO cells stably transfected with mCherry-human DCAF4L2 (plus Myc/DDK tags). The cross-reactivity control cells included CHO cells transfected with mCherry Vector Control (plus Myc/DDK tags) with one of the human MAGE-B or MAGE-A family members (MAGEA1, MAGEA2, MAGEA3, MAGEA4, MAGEA5, MAGEA6, MAGEA8, MAGEA9, MAGEA11, MAGEA12, MAGEB1, MAGEB3, MAGEB4, MAGEB5, MAGEB6, MAGEB10, MAGEB16, MAGEB17, MAGEB18). Positive control cell lines included CHO cells transfected with mCherry Vector (plus Myc/DDK tags) with human MAGE-B2 or CHO cells transfected with mCherry Vector (open reading frame (ORF); minus Myc/DDK tags) with human MAGEB2, and thirteen human cancer cell lines with known endogenous RNA expression level of MAGEB2 (U266B1, T98G, KMM-1, U20S, CFPAC-1, SCaBER, UACC-257, CFPAC-1, VMRC-LCD, NCI-H1703, UM-UC-3, NCI-H1395, NCIH82).
FFPE samples were sectioned at 4 μm and mounted on positive charged glass slides. After mounting, paraffin sections were air-dried at room temperature. FFPE TMA samples were received as freshly sectioned and mounted on glass slides. The fully automated IHC assay was performed on a Discovery Ultra Stainer (Ventana Medical Systems, Tucson, AZ) using Ventana Anti-Rabbit HQ (cat #760-4815), Ventana Anti-HQ HRP (cat #760-4820), and Ventana Antibody Diluent with Casein (cat #760-219) (Ventana Medical Systems, Tucson, AZ). The slides were baked on the Discovery Ultra Stainer at 60° C. for 8 minutes, de-paraffinized with Ventana Discovery wash (cat #950-510) for 3 cycles (8 minutes each) at 69° C., and underwent cell conditioning (target retrieval) at 95° C. for 16 minutes (for cell arrays) or 32 minutes (tissues or TMAs) in CC1 buffer (cat #950-500). Following this, slides were incubated with Background Sniper (cat #BS966M, Biocare Medical, Pacheco, CA) in a Ventana Option Prep kit (cat #771-751) for 28 minutes, incubated with CM inhibitor (a part of the Ventana DAB kit cat #760-159) for 12 minutes, and incubated for 1 h at RT with MAGE-B2 antibody diluted with Ventana diluent with Casein in a Ventana Prep kit (cat #770-001) (working concentration at 0.1 μg/ml for cell pellet, or 1-5 ug/ml for tissues) or with a matched concentration of isotype control Rabbit IgG1 antibody.

[2] = molecular target: T2, huMAGEB2(1-319), biotinylated full length MAGEB2 protein (human, UniProt O15479 1-319, biotinylated with recombinant BirA (site not stated)); assay: limited antigen FACS; biotinylated full length MAGEB2 on LumAvidin beads; B-cell supernatant
T2 construct: Expressed in E. coli from pET23; N-terminal 6xHis tag removed with caspase 3; also called Biotinylated MAGEB2 full length protein
T2 sequence: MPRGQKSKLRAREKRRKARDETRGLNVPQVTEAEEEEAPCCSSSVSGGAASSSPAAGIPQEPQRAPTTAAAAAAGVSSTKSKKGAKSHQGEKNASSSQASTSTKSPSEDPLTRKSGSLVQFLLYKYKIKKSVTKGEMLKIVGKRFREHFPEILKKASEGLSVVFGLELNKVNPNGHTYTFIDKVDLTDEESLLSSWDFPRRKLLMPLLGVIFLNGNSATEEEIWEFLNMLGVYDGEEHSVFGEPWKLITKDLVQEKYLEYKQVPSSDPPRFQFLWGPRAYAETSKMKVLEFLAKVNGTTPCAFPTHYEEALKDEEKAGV
Protocol: Biotinylated MAGEB2 full length protein was titrated 1:2 across 6 different limited antigen concentrations and then coated onto six different LumAvidin beads in FACS buffer [1×PBS+2% fetal bovine serum (Hyclone Cat No. SH30396.03)] for 30 minutes at room temperature in the dark. The beads were then washed twice in FACS buffer by centrifugation for 2 min at 3500 RPM. The coated beads were resuspended and pooled together (6-plex) and added to the rabbit B-cell supernatants at a 1:2 final dilution onto Corning 3897 96 well V-bottom polystyrene plates and incubated overnight at room temperature in the dark. […] A final wash was done before plates were read on the iQue FACS machine with Intellicyte autosampler to obtain flow cytometry measurements according to the manufacturer's recommendations; data analysis was done on Intellicyt ForeCyt® Enterprise Client Edition 6.2 (R3).

binding result [1]: binds
binding result [2]: binds
B1: 1G24 (antibody, IgG1, V domains shown)
VH: QSLEESGGGLVQPEGSLTLTCTASGFTLNNYYICWVRQAPGKGLEWIACIDNANGRTYYANWAKGRFTISKTSSTTVTLQMTSLTAADTATYFCARSLATPLWGPGTLVTVSS
VL: DIVMTQTPASVEAAVGGTVTIKCQASESIGNALAWYQQKPGQPPSLLIYRASTLASGIPSRVKGSGSGTQFTLTISDLECADAATYYCQSYDDSSSSSFFYAFGGGTEVVVK
notes: Rabbit monoclonal IgG1
